# B1: COV2-2489 (human mAb, recombinant IgG1) (antibody, V domains shown)
# VH: QLQLQESGPGLVKPSETLSLTCTVSGGSISSTTYYWGWIRQPPGKGLEWIASIYYSGSTYYNPSLKSRLTVSVDTSKNQFSLKLSSVTAADTAVYYCARQWKWFGEAWYFDLWGRGTLVTVSS
# VL: not shown
# B2: COV2-2676 (human mAb, recombinant IgG1) (antibody, V domains shown)
# VH: QVQLVQSGAEVKKPGSSVKVSCKASGGTFSSYAINWVRQAPGQGLEWMGGIIPIFGTANYAQKFQGRVTFTADESTSTAYMEVSSLRSEDTAVYYCARSCGDCYSADLDFWGQGTLVTVSS
# VL: EIVLTQSPATLSLSPGERATLSCRASQSISSFLAWYQQKPGQAPRLLIYDASNRATGIPARFSGSGSGTDFTLTISSLEPEDFAVYYCQRRSNWPPFTFGPGTKVDIK
# Target: SARS-CoV-2 (strain Wuhan-Hu-1) spike protein, wild type, full-length expression construct (SARS-CoV-2, Wuhan-Hu-1, UniProt P0DTC2)
# Experiment: flow cytometry on cells
row,Binder,binding result
1,B1,binds
2,B2,binds

# Source: paper PMC7962591 (Cell, 2021)
